This is an account of results in US20050130152, “Method for performing in vitro diagnosis using gene regulation mechanisms and corresponding diagnosis kit” (UNISENSOR S.A., published 2005).

The series addresses T1, TetR class C (tetracycline repressor, pSC101) (Escherichia coli C600 (plasmid pSC101), UniProt P03039 P03039:1-219).
T1 sequence: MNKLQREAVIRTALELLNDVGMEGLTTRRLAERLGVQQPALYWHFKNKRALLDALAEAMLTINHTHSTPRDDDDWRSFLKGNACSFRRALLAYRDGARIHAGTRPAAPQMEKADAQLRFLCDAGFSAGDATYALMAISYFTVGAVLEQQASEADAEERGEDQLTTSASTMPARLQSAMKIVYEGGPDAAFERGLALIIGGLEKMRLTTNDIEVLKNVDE
Put plainly: immunochromatographic strip; test line 5218 without tetracycline, falling to 399 at 100 ppb tetracycline in milk; DNA immobilised via avidin. To be noted: tags: untagged; detected via anti-TetR serum and gold-labelled A-protein in strip assay; chain copies: 2; label: 5'-biotin on teta-40; 31 bp duplex with 5' single-strand poly-T tail. The method, then: 200 μl of milk are incubated in the presence of the lyophilised reagents and prepared as in Point 1.1.2.2. After two minutes of incubation at 37° C., the analysis strip described at 1.3 is immersed in the solution. The final interpretation is carried out after 8 minutes of incubation by means of an optical strip reader available from 77-Elektronika (Budapest, Hungary).

B1: tetA operator of pSC101 (teta-40/teta-30) (dsDNA)
DNA 1: TTTTTTTTTTTAATGCGGTAGTTTATCACAGTTAATTGCTAA
DNA 2: TTAGCAATTAACTGTGATAAACTACCGCATT
B1: the binding result is reported as “binds”.
